From ChEMBL document CHEMBL4342470, “Detection of Active Granzyme A in NK92 Cells with Fluorescent Activity-Based Probe” (J Med Chem, 2020)

B1: Granzyme A (Homo sapiens), P12544 (protein)
chain: MRNSYRFLASSLSVVVSLLLIPEDVCEKIIGGNEVTPHSRPYMVLLSLDRKTICAGALIAKDWVLTAAHCNLNKRSQVILGAHSITREEPTKQIMLVKKEFPYPCYDPATREGDLKLLQLMEKAKINKYVTILHLPKKGDDVKPGTMCQVAGWGRTHNSASWSDTLREVNITIIDRKVCNDRNHYNFNPVIGMNMVCAGSLRGGRDSCNGDSGSPLLCEGVFRGVTSFGLENKCGDPRGPGVYILLSKKHLNWIIMTIKGAV
B2: Granzyme K (Homo sapiens), P49863 (protein)
chain: MTKFSSFSLFFLIVGAYMTHVCFNMEIIGGKEVSPHSRPFMASIQYGGHHVCGGVLIDPQWVLTAAHCQYRFTKGQSPTVVLGAHSLSKNEASKQTLEIKKFIPFSRVTSDPQSNDIMLVKLQTAAKLNKHVKMLHIRSKTSLRSGTKCKVTGWGATDPDSLRPSDTLREVTVTVLSRKLCNSQSYYNGDPFITKDMVCAGDAKGQKDSCKGDSGGPLICKGVFHAIVSGGHECGVATKPGIYTLLTKKYQTWIKSNLVPPHTN

Tests used:
Settings in all cases: Homo sapiens; call rule not given here
[1] = substrate: CC[C@H](C)[C@H](NC(C)=O)C(=O)NCC(=O)N1CCC[C@H]1C(=O)N[C@@H](CCCNC(=N)N)C(=O)Nc1ccc2c(CC(N)=O)cc(=O)oc2c1; test: (§1) Substrate activity at Granzyme A (unknown origin) expressed in Pichia pastoris incubated for 30 mins by fluorescence based assay
[2] = substrate: CC(=O)N1Cc2ccccc2C[C@H]1C(=O)NCC(=O)N1C2CCCCC2C[C@H]1C(=O)N[C@@H](CCCNC(=N)N)C(=O)Nc1ccc2c(CC(N)=O)cc(=O)oc2c1; test: as §1
[3] = substrate: CC(=O)N1Cc2ccccc2C[C@H]1C(=O)NCC(=O)N1C2CCCCC2C[C@H]1C(=O)N[C@@H](CCCNC(=N)N)C(=O)Nc1ccc2c(CC(N)=O)cc(=O)oc2c1; test: Substrate activity at Granzyme K (unknown origin) expressed in Pichia pastoris incubated for 30 mins by fluorescence based assay

Protein	Km [1] [µM]	kcat [1] [s⁻¹]	kcat/Km [1] [M⁻¹ s⁻¹]	Km [2] [µM]	kcat [2] [s⁻¹]	kcat/Km [2] [M⁻¹ s⁻¹]	Km [3]	kcat [3]	kcat/Km [3]
B1	450	0.035	78	87.4	0.27	3100	–	–	–
B2	–	–	–	–	–	–	Not Active	Not Active	Not Active
